Drawing on article PMC6349404, “Integrin alpha11 is an Osteolectin receptor and is required for the maintenance of adult skeletal bone mass” (eLife, 2019), this text covers Kd for one molecule.

As a reminder, the Kd is a measure of binding affinity in units of concentration.

Common to all, as to assay: ELISA; microtiter well binding assay; plates coated with 10 nM recombinant human Osteolectin, Pro-Collagen 1α or BSA overnight at 4°C, blocked with 10 mg/ml BSA; 6xHis tagged integrins in TBS (50 mM Tris-Cl pH 7.5, 150 mM NaCl) with 1 mM MnCl2; bound integrin detected with anti-His tag antibody and HRP secondary, OD 450 nm
Common to all, as to details: both partners purified
(In an ELISA, binding on a coated surface is turned into a signal by an enzyme label.)

The target of experiment [1] is T1, recombinant human integrin α9β1 (human, UniProt Q13797 30-981; P05556 21-728).
T1 construct: integrin α9, human, chain of the recombinant heterodimer; integrin β1, human, chain of the recombinant heterodimer; source: bought: R and D Systems

Experiment [2] deals with T2, recombinant human integrin α10β1 (human, UniProt O75578 23-1122; P05556 21-728).
T2 construct: integrin α10, human, chain of the recombinant heterodimer; integrin β1, human, chain of the recombinant heterodimer; source: bought: R and D Systems

Experiment [3] concerns the target T3, recombinant human integrin α11β1 (human, UniProt Q9UKX5 23-1141; P05556 21-728).
T3 construct: integrin α11, human, chain of the recombinant heterodimer; integrin β1, human, chain of the recombinant heterodimer; also called α11β1 integrin; source: bought: R and D Systems

For experiment [4], the target named is T4, recombinant human integrin α4β1 (human, UniProt P13612 35-977; P05556 21-728).
T4 construct: integrin α4, human, chain of the recombinant heterodimer; integrin β1, human, chain of the recombinant heterodimer; source: bought: R and D Systems

Experiment [5] addresses recombinant human integrin αMβ2 (human, UniProt P11215 17-1104; P05107 23-700).

T2 sequence (O75578 23-1122, chain 1 of 2): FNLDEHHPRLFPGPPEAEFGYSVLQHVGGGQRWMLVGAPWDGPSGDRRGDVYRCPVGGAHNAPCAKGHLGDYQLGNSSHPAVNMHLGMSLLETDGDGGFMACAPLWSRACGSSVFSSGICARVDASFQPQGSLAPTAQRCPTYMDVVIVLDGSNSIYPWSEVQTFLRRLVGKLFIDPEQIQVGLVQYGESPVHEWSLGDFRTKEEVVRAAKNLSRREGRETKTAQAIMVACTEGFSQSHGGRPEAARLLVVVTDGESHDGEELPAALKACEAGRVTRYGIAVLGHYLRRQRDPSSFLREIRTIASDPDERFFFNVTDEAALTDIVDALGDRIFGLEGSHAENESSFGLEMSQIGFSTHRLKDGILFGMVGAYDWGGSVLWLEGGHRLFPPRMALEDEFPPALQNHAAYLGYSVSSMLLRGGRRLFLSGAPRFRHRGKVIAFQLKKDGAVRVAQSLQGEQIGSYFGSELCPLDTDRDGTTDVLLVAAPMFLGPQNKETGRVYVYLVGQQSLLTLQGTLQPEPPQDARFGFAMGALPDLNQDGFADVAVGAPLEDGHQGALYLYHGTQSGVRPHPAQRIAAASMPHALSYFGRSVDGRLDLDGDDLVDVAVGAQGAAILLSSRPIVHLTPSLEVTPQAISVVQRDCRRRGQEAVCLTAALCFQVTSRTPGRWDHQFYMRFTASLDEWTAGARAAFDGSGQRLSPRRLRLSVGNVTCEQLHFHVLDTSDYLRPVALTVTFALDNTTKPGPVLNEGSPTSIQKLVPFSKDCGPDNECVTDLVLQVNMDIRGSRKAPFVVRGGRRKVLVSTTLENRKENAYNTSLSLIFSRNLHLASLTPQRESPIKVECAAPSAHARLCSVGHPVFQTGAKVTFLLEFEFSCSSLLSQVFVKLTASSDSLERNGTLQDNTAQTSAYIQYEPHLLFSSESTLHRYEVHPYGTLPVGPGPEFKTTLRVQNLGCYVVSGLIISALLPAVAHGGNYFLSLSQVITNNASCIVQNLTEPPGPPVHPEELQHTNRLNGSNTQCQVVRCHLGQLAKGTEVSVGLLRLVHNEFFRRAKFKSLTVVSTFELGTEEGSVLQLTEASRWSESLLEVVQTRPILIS
T2 sequence (P05556 21-728, chain 2 of 2): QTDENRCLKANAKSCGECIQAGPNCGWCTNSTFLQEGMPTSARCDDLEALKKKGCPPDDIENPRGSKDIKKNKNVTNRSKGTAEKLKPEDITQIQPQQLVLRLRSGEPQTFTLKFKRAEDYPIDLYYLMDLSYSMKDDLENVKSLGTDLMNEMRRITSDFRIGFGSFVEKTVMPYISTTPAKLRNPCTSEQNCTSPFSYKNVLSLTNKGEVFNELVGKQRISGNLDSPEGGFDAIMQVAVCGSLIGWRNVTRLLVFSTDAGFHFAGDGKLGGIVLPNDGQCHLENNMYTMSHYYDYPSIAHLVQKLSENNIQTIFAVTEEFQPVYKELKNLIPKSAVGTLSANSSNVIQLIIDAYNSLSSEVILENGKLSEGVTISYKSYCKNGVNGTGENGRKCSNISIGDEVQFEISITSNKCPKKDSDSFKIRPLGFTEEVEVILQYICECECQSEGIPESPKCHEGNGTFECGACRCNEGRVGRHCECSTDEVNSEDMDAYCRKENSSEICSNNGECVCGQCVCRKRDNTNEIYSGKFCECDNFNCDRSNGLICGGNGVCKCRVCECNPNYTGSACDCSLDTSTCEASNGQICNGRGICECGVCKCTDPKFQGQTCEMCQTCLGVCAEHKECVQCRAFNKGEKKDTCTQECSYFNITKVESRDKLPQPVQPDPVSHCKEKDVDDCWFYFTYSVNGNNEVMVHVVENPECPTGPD
T4 sequence (P13612 35-977, chain 1 of 2): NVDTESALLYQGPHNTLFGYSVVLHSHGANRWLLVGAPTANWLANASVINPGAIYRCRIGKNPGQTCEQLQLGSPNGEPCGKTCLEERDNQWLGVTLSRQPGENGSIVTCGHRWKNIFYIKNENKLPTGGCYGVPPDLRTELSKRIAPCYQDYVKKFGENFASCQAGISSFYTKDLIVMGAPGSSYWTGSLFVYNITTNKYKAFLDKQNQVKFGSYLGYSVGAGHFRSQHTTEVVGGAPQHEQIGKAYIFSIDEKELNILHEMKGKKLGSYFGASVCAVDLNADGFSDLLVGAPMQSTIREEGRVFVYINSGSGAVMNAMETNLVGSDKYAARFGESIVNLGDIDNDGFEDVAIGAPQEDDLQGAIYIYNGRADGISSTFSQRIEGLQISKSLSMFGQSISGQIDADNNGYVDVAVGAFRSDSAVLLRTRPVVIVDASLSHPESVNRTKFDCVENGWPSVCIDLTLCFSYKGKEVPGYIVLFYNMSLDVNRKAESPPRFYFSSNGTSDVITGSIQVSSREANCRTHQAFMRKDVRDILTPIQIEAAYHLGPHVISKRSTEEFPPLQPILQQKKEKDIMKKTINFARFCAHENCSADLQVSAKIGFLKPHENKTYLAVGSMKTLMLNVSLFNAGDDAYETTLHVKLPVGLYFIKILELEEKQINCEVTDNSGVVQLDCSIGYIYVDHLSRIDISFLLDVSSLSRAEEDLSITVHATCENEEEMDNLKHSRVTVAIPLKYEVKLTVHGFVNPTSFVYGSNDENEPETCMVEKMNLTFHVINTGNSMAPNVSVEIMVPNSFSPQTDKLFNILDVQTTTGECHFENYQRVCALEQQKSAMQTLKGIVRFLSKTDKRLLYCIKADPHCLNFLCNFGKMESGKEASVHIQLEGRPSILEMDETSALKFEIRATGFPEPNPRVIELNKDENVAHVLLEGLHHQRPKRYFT
T4 sequence (P05556 21-728, chain 2 of 2): as the sequence (P05556 21-728, chain 2 of 2) above
T3 sequence (Q9UKX5 23-1141, chain 1 of 2): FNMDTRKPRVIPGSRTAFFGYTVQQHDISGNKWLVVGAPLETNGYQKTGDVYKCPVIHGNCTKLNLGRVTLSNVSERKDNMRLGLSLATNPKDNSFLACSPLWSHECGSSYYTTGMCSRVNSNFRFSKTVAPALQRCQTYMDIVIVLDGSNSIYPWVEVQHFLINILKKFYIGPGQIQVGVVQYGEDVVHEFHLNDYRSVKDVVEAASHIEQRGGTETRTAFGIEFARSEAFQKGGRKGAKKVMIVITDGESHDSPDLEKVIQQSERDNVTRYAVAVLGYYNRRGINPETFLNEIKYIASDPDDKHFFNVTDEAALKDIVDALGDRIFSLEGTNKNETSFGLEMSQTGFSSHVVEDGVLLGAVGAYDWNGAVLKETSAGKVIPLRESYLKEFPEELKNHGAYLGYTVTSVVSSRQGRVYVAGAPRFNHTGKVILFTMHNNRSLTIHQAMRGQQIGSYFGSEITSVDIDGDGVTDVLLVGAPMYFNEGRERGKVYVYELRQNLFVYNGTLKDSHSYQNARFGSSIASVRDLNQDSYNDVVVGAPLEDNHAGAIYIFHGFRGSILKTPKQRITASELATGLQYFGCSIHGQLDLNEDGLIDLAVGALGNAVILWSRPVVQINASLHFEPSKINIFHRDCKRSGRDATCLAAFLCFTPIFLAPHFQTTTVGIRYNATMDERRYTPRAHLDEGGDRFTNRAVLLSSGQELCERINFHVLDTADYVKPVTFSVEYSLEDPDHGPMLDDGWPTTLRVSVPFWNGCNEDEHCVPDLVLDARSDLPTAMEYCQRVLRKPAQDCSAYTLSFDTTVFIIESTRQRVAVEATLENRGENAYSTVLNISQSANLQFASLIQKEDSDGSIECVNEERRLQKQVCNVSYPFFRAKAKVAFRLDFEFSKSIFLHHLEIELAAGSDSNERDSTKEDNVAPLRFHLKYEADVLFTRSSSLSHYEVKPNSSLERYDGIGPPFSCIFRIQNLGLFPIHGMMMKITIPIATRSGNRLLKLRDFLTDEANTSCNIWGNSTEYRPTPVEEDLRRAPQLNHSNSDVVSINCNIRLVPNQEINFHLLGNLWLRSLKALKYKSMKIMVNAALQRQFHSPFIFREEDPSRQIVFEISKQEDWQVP
T3 sequence (P05556 21-728, chain 2 of 2): as the sequence (P05556 21-728, chain 2 of 2) above
T1 sequence (Q13797 30-981, chain 1 of 2): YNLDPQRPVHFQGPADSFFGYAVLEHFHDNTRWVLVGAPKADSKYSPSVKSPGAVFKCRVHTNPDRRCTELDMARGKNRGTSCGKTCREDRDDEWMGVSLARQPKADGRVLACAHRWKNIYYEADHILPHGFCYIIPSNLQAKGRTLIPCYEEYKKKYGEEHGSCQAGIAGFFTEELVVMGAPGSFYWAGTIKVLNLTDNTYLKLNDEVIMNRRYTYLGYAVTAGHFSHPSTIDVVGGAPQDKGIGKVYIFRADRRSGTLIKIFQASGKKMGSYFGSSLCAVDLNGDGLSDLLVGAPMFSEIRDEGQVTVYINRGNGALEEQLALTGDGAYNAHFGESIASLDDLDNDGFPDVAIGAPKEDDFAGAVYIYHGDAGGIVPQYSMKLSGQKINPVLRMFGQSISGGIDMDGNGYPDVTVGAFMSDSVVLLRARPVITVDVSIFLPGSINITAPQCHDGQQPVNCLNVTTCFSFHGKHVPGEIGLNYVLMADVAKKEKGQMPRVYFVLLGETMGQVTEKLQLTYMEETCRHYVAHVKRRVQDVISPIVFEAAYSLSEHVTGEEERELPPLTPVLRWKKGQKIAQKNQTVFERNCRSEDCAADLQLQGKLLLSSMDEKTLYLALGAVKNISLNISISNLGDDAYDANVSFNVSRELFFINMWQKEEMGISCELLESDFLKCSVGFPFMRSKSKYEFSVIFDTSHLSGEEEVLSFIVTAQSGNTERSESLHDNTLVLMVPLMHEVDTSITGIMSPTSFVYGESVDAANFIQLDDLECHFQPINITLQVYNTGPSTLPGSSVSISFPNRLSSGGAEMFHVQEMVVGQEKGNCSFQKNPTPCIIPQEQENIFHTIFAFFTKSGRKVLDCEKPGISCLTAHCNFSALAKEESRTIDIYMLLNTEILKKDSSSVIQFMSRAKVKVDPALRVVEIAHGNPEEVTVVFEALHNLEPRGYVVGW
T1 sequence (P05556 21-728, chain 2 of 2): as the sequence (P05556 21-728, chain 2 of 2) above

B1: recombinant human Osteolectin (ligand, UniProt Q9Y240 22-323, looked up)
chain: ARGAEREWEGGWGGAQEEEREREALMLKHLQEALGLPAGRGDENPAGTVEGKEDWEMEEDQGEEEEEEATPTPSSGPSPSPTPEDIVTYILGRLAGLDAGLHQLHVRLHALDTRVVELTQGLRQLRNAAGDTRDAVQALQEAQGRAEREHGRLEGCLKGLRLGHKCFLLSRDFEAQAAAQARCTARGGSLAQPADRQQMEALTRYLRAALAPYNWPVWLGVHDRRAEGLYLFENGQRVSFFAWHRSPRPELGAQPSASPHPLSPDQPNGGTLENCVAQASDDGSWWDHDCQRRLYYVCEFPF
notes: Osteolectin/Clec11a, human; cDNA cloned into pcDNA3 with a C-terminal 1XFlag-tag; secreted into the culture medium; also called rhOln; Clec11a
As for B1, the Kd in experiment [1] is above 100 nM; in experiment [2] it was 0.3 nM; in experiment [3] it was 0.3 nM; in experiment [4], above 100 nM; in experiment [5], above 100 nM.
